Laboratory results taken from paper PMC3289903.

Biological target: recombinant Tp0956 (non-lipidated, residues 2-302) (Treponema pallidum)
Experiment: AUC

Sequence of recombinant Tp0956 (non-lipidated, residues 2-302) (Treponema pallidum) (O83922 23-323 limits assumed): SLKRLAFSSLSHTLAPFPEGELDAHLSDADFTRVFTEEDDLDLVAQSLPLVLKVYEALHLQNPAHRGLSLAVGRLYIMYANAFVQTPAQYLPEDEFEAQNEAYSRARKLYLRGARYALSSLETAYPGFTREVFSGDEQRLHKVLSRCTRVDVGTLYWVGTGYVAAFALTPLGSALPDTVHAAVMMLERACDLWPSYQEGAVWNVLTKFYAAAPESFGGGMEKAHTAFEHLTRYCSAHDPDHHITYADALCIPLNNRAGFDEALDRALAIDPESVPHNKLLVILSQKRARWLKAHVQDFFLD

recombinant Tp0957 (non-lipidated, residues 7-328) (natural protein)
Kd(1), first binding event (macroscopic): 60 nM | cooperativity factor α2 (second binding event): 1.5 | cooperativity factor α3 (third binding event): 0.34
